In patent US11352401 one finds peptide exchange yield data, which are given here for 62 molecules.

The first experiment addresses T1, HLA-A*24 (human).
T1 construct: MHC monomer made peptide-receptive by UV cleavage of a UV-sensitive ligand; also called peptide-receptive MHC class I monomer
Nature of the experiment: UV peptide-exchange ELISA; ++++ = yield >75%. The source says:
(§1) Candidate peptides for T cell based therapies according to the present invention were further tested for their MHC binding capacity (affinity). The individual peptide-MHC complexes were produced by UV-ligand exchange, where a UV-sensitive peptide is cleaved upon UV-irradiation, and exchanged with the peptide of interest as analyzed. Only peptide candidates that can effectively bind and stabilize the peptide-receptive MHC molecules prevent dissociation of the MHC complexes. To determine the yield of the exchange reaction, an ELISA was performed based on the detection of the light chain (β2m) of stabilized MHC complexes. The assay was performed as generally described in Rodenko et al. (Rodenko et al., 2006).
(§2) 96 well MAXISorp plates (NUNC) were coated over night with 2 ug/ml streptavidin in PBS at room temperature, washed 4× and blocked for 1 h at 37° C. in 2% BSA containing blocking buffer. […] Peptide-MHC monomers of the UV-exchange reaction were diluted 100-fold in blocking buffer. Samples were incubated for 1 h at 37° C., washed four times, incubated with 2 ug/ml HRP conjugated anti-β2m for 1h at 37° C., washed again and detected with TMB solution that is stopped with […]. Absorption was measured at 450 nm.
KYITNLEDL [KYITNLEDL (SEQ ID NO: 53)]: the peptide exchange yield is > 75%.

On to KFIISDWRF [KFIISDWRF (SEQ ID NO: 23)], for which the peptide exchange yield is > 75%.

Consider HYTYILEVF [HYTYILEVF (SEQ ID NO: 13)], for which the peptide exchange yield is > 75%.

As for RWMDQRLVF [RWMDQRLVF (SEQ ID NO: 55)], the peptide exchange yield was > 75%.

Regarding DYIGSVEKW [DYIGSVEKW (SEQ ID NO: 18)], the peptide exchange yield is > 75%.

As to VYPLLSRLYW [VYPLLSRLYW (SEQ ID NO: 29)], the peptide exchange yield is > 75%.

Take QFAAPLRGIYF [QFAAPLRGIYF (SEQ ID NO: 58)]: the peptide exchange yield is > 75%.

Consider RYMKKDYLI [RYMKKDYLI (SEQ ID NO: 5)], for which the peptide exchange yield is > 75%.

As for SYNGYVFYL [SYNGYVFYL (SEQ ID NO: 25)], the peptide exchange yield was > 75%.

Turning to QYDPTPLTW [QYDPTPLTW (SEQ ID NO: 1)], the peptide exchange yield was > 75%.

Turning to MQPRMFFLF [MQPRMFFLF (SEQ ID NO: 34)], the peptide exchange yield was > 75%.

Regarding KYALLLQDL [KYALLLQDL (SEQ ID NO: 15)], the peptide exchange yield was > 75%.

Consider KYALLLQEL [KYALLLQEL (SEQ ID NO: 51)], for which the peptide exchange yield was > 75%.

On to KYADYFLEV [KYADYFLEV (SEQ ID NO: 47)], for which the peptide exchange yield is > 75%.

Regarding VFIDHPVHLKF [VFIDHPVHLKF (SEQ ID NO: 48)], the peptide exchange yield was > 75%.

With KYFVPPQLF [KYFVPPQLF (SEQ ID NO: 45)], the peptide exchange yield is > 75%.

For the molecule YYSKSVGFMQW [YYSKSVGFMQW (SEQ ID NO: 11)], the peptide exchange yield is > 75%.

TQPGDWTLF [TQPGDWTLF (SEQ ID NO: 22)]: the peptide exchange yield was > 75%.

In the case of AFPVTSIFHTF [AFPVTSIFHTF (SEQ ID NO: 46)], the peptide exchange yield was > 75%.

Regarding KYLEESVWL [KYLEESVWL (SEQ ID NO: 35)], the peptide exchange yield is > 75%.

As for VWSDVTPLNF [VWSDVTPLNF (SEQ ID NO: 10)], the peptide exchange yield is > 75%.

KYMKIFHKF [KYMKIFHKF (SEQ ID NO: 52)]: the peptide exchange yield was > 75%.

NYTLYPITF [NYTLYPITF (SEQ ID NO: 27)]: the peptide exchange yield was > 75%.

For QYLPGWTVLF [QYLPGWTVLF (SEQ ID NO: 30)], the peptide exchange yield is > 75%.

Consider EFTTVLYNF [EFTTVLYNF (SEQ ID NO: 20)], for which the peptide exchange yield was > 75%.

As to SLPDLTPTF [SLPDLTPTF (SEQ ID NO: 32)], the peptide exchange yield is > 75%.

As to LYISEVRNI [LYISEVRNI (SEQ ID NO: 49)], the peptide exchange yield is > 75%.

As to MYPDLSELLM [MYPDLSELLM (SEQ ID NO: 24)], the peptide exchange yield was > 75%.

VYMIEPLEL [VYMIEPLEL (SEQ ID NO: 56)]: the peptide exchange yield was > 75%.

Consider QYQNVLTLW [QYQNVLTLW (SEQ ID NO: 31)], for which the peptide exchange yield is > 75%.

On to VWSNVTPLKF [VWSNVTPLKF (SEQ ID NO: 2)], for which the peptide exchange yield is > 75%.

With SYEKVINYL [SYEKVINYL (SEQ ID NO: 4)], the peptide exchange yield is > 75%.

Take KYTNWKAFL [KYTNWKAFL (SEQ ID NO: 38)]: the peptide exchange yield is > 75%.

With PFLPPAACFF [PFLPPAACFF (SEQ ID NO: 8)], the peptide exchange yield is > 75%.

For YYSIISHTL [YYSIISHTL (SEQ ID NO: 28)], the peptide exchange yield is > 75%.

QWPWQASLQF [QWPWQASLQF (SEQ ID NO: 37)]: the peptide exchange yield was > 75%.

Regarding SYPELVKMVW [SYPELVKMVW (SEQ ID NO: 50)], the peptide exchange yield is > 75%.

Consider AYLSAVGTF [AYLSAVGTF (SEQ ID NO: 44)], for which the peptide exchange yield is > 75%.

Turning to KTPTNYYLF [KTPTNYYLF (SEQ ID NO: 26)], the peptide exchange yield was > 75%.

Consider KYKDYFPVI [KYKDYFPVI (SEQ ID NO: 6)], for which the peptide exchange yield is > 75%.

In the case of TLPNTIYRF [TLPNTIYRF (SEQ ID NO: 42)], the peptide exchange yield was > 75%.

As to YPSIIQEF [YPSIIQEF (SEQ ID NO: 57)], the peptide exchange yield was > 75%.

Another experiment addresses T2, HLA-A*01 (human).
T2 construct: MHC monomer made peptide-receptive by UV cleavage of a UV-sensitive ligand; also called peptide-receptive MHC class I monomer
Nature of the experiment: UV peptide-exchange ELISA; ++++ = yield >75%.
Source text: as §1, §2
For the molecule VSDSECLSRY [VSDSECLSRY (SEQ ID NO: 189)], the peptide exchange yield is > 75%.

As to ETARKFLYY [ETARKFLYY (SEQ ID NO: 404)], the peptide exchange yield is > 75%.

With ASEASRLAHY [ASEASRLAHY (SEQ ID NO: 395)], the peptide exchange yield was > 75%.

On to VTEESFDSKFY [VTEESFDSKFY (SEQ ID NO: 192)], for which the peptide exchange yield was > 75%.

In the case of STDPWIQMAY [STDPWIQMAY (SEQ ID NO: 180)], the peptide exchange yield was > 75%.

Regarding TLEDIATSHLY [TLEDIATSHLY (SEQ ID NO: 183)], the peptide exchange yield is > 75%.

Turning to ATDIPCLLY [ATDIPCLLY (SEQ ID NO: 399)], the peptide exchange yield is > 75%.

VTEFSLNTY [VTEFSLNTY (SEQ ID NO: 193)]: the peptide exchange yield was > 75%.

With ASEITSKGASLY [ASEITSKGASLY (SEQ ID NO: 397)], the peptide exchange yield is > 75%.

Consider ASEAEMRLFY [ASEAEMRLFY (SEQ ID NO: 394)], for which the peptide exchange yield was > 75%.

With STAKSATWTY [STAKSATWTY (SEQ ID NO: 179)], the peptide exchange yield was > 75%.

Regarding YSDEDVTKY [YSDEDVTKY (SEQ ID NO: 200)], the peptide exchange yield is > 75%.

Take YVGKEHMFY [YVGKEHMFY (SEQ ID NO: 201)]: the peptide exchange yield was > 75%.

For ASEFGNHYLY [ASEFGNHYLY (SEQ ID NO: 396)], the peptide exchange yield was > 75%.

As to DSDESYMEKSLY [DSDESYMEKSLY (SEQ ID NO: 401)], the peptide exchange yield is > 75%.

As to ETEQTKFWDY [ETEQTKFWDY (SEQ ID NO: 406)], the peptide exchange yield is > 75%.

As to TSDSNLNKY [TSDSNLNKY (SEQ ID NO: 185)], the peptide exchange yield was > 75%.

Consider YLDPVQRDLY [YLDPVQRDLY (SEQ ID NO: 198)], for which the peptide exchange yield was > 75%.

Take ETEEGIYWRY [ETEEGIYWRY (SEQ ID NO: 405)]: the peptide exchange yield is > 75%.

For SSDEVNFLVY [SSDEVNFLVY (SEQ ID NO: 177)], the peptide exchange yield is > 75%.
